Results as given in a protein production outcome set (Wang et al. 2014).

Experiment: label from the status in PepcDB records

| Sequence | protein production |
| --- | --- |
| MGLPAHHIDAFLDRLRTAHYSEVSLRKKRRVLCAFSGWMKHRNIDLIDLDESVTARFMKRMIDASRDRVQRARPTLRQFLAYLRAEAIVCSPTLGSQSAIAHTYRRYLDYLRQDRGLAKNSLLVYGPFIRDFLDSHSAGDGSLLPDAFDAVTIRNHLLARSKGRSAEYTRLMAVALRSFCHFLFLRGDTARDLAGSVPSVRKWRQSTVPTFLTPEQQEALIASADRSTPTGLRDYAILLLLARLGLRAGEIIEIELDDIHWRSGELVVHGKGQMVEHVPLSSEVGAAIATYLRDGRGASASRRVFLRRLAPRVGLAGPAAIGKIVCQAFARVGFRPACRGAAHLFRHGLATTMIRHGASMAEIAEVLRHRSPDSTAIYAKVAFEDLRGVARSWPTAGGAILEHHHHHH | not failed |
| MVKKMKSKTISTIHIDTFSIPFPFVAMSNKVCRGYTLIRAFGITALAILILVGIAGAAPFAYVTNIGDYDQRGPNVAVIDTATNNVTARVPLGGGWPVGVAVNPAGTKIYVVDSPSDSTVYVIDTATNKVSAKVNLGSSYPARITFNPAGTRVYVTKQHDYTDIFVINPATNTLMAPIIVGPSTYGIAFTPDGKKIYAANCNNNTIYVIDAATNKVTANISVGDSPCGIAVTPDGKKVYVLNYDSNTVSVINTATDNVIATVPVGNSPNLVAVTSNGNKVYVANNNTVSVIDTATNNVIATIPVGTSSRKIVINPDGNRVYLVNFGSNSVSVIDTATDNVIANVPVGEQPMGIAVTPDGKRVYVTNSRSSNVSVIDTATDTVAATVNAGILPTGVVIVPLTDSDMTSQSTGAISSSTEDRGIEVTNISSSEEINAVELNNYSDENNPESDNDNGSNANDSSKNNSTPGFGLLESLAGLYVGWKLGKR | failed |
| MTPIPLINIPLCNLAGDGYILSEKSQSQNMLRGIVMSETVRVGLLGYGYASKTFHAPLIAGTAGMELVAVSSSNAEKVHADWANLRVEKDPQALFSDPDIDLIVIPTPNDTHFPLAKQALEAGKHVVVDKPFTVTLSQAYDLGAIAERAGKVLSVFHNRRWDSDFLTLKQLLSAGTLGNVVYMESHFDRFRPEVRQRWREDGSEGSGIWYDLGPHLLDQALELFGLPVAIQVDMAQLRPGSKATDYFHATLIYPQRRVILHASMLVAAASARYTVHGTRGSFVKYGLDPQEDRLKAGERPPLADWGQDKHDGVLTLSRDGITAEQTIATIPGNYPAYYAAVRDALLGKGENPVGVNQAIQVMELIELGLLSHEQKKAVALKNSLEHHHHHH | failed |
| MTPFTVDILIPIWNRPVETRNCLVTLMETTPSARLILIDNGSDRETERLLEEFSEILGERALFLKTSANQGFVRAVNRSLAQVEAPYAVVMQNTTLVTRGWLEPMVELADSRPDAGIIVPRLELEDGQGRRPKAAPPAGPVTEVSHGSFAASMVRRELVERQGGFDEELDGGPWCLRDYSRRAFRNGFLTLALDGAVVTYAEEVPLGSVARREETVRRSAETCRARWGREDAFCIYFPKDAEPEAVHGKLDVILRGARMGQCFTLILHPGLHKSLMETGHAPLHSNIALAPLPRFFATGEIRKIIGKLASVRGDTVTVAGVDGLSIPGVEGARSFSWLADEIRRRHESLYRPESPLEHHHHHH | not failed |
| MHAINFIQDLAVIMLVAGVVTILFHRLRQPVVLGYIVAGFIIGPHTPPVSLIHDEDTIKILAELGVIFLMFCLGLEFSLRKLFKVGATAFIAAFLEIALMIWIGYEIGQFFGWKTMDSLFLGAILAISSTTIIVKALNDLKMKNQHFAQLIFGVLIVEDILGIGIIALLSGIAVSGSVSSGEVFSTVGKLSLFMIVALVVGILLVPRLLSYVARFDSNEMLLITVLGLCFGFCLLVVKLEYSMVLGAFLIGAIMAESRELLKIERLIEPIRDMFSAIFFVAIGLMIDPKILLEYAWPIAVITVAVVLGKMISCGLGAFIAGNDGRTSLRVGMGLSQIGEFSFIIAALGMTLQVTSDFLYPVAVAVSAITTLLTPYLIRGADPLSLKLAAIMPRRVARVFGMYGEWLRSIQPQGQSAVLAGMIRRILLQVGVNLALVMAIFFSGGYFAERLGGYMDEWVADVSHQKAWICGAALLLSLPFLIAAYRKLKALSMLLAEMGVKPEMAGRHTVRVRKVVAEVIPLLSLVVIFVMLAALSASILPANELLLVVVLVAALVAALLWRWLIRVHTRMQIALLETLGNNQESSGH | failed |
| AERTIQLPKPDMNRAGLLMKALSERHSTREYASKALSNTDLSDLLWAANGINRSSEGKRTAPSAMNRQDIDIYVVLPQGTYLYDAKGHKLNLISEGDHRSAVAGGQAFVNNAPVSLVLVSDLSKLGDAKSNHVQLMGAMDAGIVSQNISLFCSAARLATVPRASMDLVRLKAALKLKDTQMPMMNHPVGYFK | not failed |
| MRKIFLACPYSHADAEVVEQRFRACNEVAATIVRAGHVVFSQVSMSHPINLCLAELDRAAIGRLWAPVDAFYMDHLEELIVLDLPGWRDSAGIRREMEFFEAGGQRVSLWSEVEHEFR | not failed |
| MLIREAKLAGTPEQFAQLDAAIRTAQCVHNRCLRYWRDNAGVSKNDLQKFCAVLAKDAEQPWMGLLNSQARQAAAERTWQSIQSFYRRCKEGAKHKGYPKFKKHSRSVEYKTSGWKLSDDGMSITFTDGFKAGQLELWLDGSARQLILSSKINRVRVVRRADGYYAQFCLDVERQEAGVYSGNVIGLDLGLKYFTKDSNGAEVACPKFFRKGEKRLRRAQRRLSKRFKKGAKPQSKNYHKQRQRIGKVHLKIQRQRKSWAIEQARRVMVSNDIVVYEDLRVPNLVRSRHLAKSIHDAGWTQFTHWLDYYGKLWRKVVVAVNPAYTSQDCSGCGYRVQKSLSTRTHDCPHCGLTICRDQNAALNILKRGLEVVGAEWNNGTAGHAETGSQEQTTGEISTSAEVGQPTSVSAVAEPVRTSREAV | failed |
| MNHAITMGIFWHLIGAASAACFYAPFKKVKHWSWETMWSVGGIVSWLILPWAISATLLPDFWAYYRSFSASTLLPVFLFGAMWGIGNINYGLTMRYLGMSMGIGIAIGITLIVGTLMTPIINGQFAVLMHTQGGQMTLLGVLVAVIGVGIVTRAGQLKERKMGIKAEEFNLKKGLLLAVMCGIFSAGMSFAMNAAKPMHDAAAALGVDPLYAALPSYVVIMGGGALVNLGFCFIRLAKVKNLSVKADFSLAKPLIISNLLLSALGGLMWYLQFFFYAWGHASIPAQYDYMSWMLHMSFYVLCGGVVGLVLKEWNNAGRRPVSVLSLGCVVIIIAANIVGLGMAS | failed |
| MAIERIQLHTHGDDRGLLISLEQQRNVPFEIRRVYYLFGTRHDVHRGQHAHRQLNQFAVALHGSVTILLDEGNGNGPSEVVLDDPSQGLLLGRMVWRDLYRFSADCVLMVLADQPYDPGDYILDYDQFVSEVRNGTALQARRLEA | failed |
| MPQGKWFRFGYGIVLVLLIIYLGSLVDWIFRPIVVFVQTLFAPVIIAGILYYLFRPIVGLLSKKMNRGLSILILFLMIIGAFTAFSLIVGPELQRQFQSLYNNLPTLINQVRDTFIALQSNELFNRFQESETFQPEEMISRFVNSLNDIIGTIGANITGFIGALANFFIILVLVPFILFYLLKEGEKLPVQLLKLFNKKQQHEGRLILADMDKMLSSYIQGQIIVSFCVGILCYIAYLIIGLDYALILALVAMFTNVIPFVGPWIGTFPAVIVAFIDSPLTALIVVIVVVVIQQIESNLISPQVMGKKLAIHPITIIFILLVAGRFAGVVGMLLAVPTYAVGKVIVTHSYRLWKLRKQPVE | failed |
| MTQYTHIRNATGKLTIKNTTFLIDPFLAPKDTYPGFEGTFNYQQRMPMVDLPLSMDDLLSNVTAVVVTHTHLDHWDDTAINSIPKSLPIFVQNTADKELITSQGFIDVRIIFESLEFNGITLRKTGGSHGTVEMYANPVLAPLAGDAMGVIFEAADEPTVYLVGDTVWTSDVEKALLRFDPNVIIMNTGYAQILGFEDSIIMGTKDIGRMVVRKPEAKIIAVHMDTVNHTATSRKDVRKFIKGNNIESHVAVPEDGETITL | not failed |
| VKRAVQKTSDLIVLGLPWKTTEQDLKEYFSTFGEVLMVQVKKDLKTGHSKGFGFVRFTEYETQVKVMSQRHMIDGRWCDCKLPNSKQSQD | not failed |
| MVRLAEERDFPGFLGLAGQVEHWFGPMVEDAGFHEAVREHIRRGAALVAVAPDPDTDAGPGAGTGTELLGGLLFGTDTDADAPVHHVHWLVVSRQARAGGVGRALMRDAMRRWVREPAGVEVVTFGADHPGATESGARAFYERLGFTPAEVVAPGPEGGSRQLFRRGAQVRPTRGEHVTTYTGGPA | failed |
| MKAYPYIFLLLISSSLAASQEDKLYEAARSALNDNKYSEALIHVKNILKISPEHLASNILIAEILLADGSASAAEASLTKAVSLGANKKQLRLLFAESYIMQGQYNKTLDYLPEQTNDDKLAAKIYVLRGDAHLGLRQLKLSQNDYNTALAFDAKNIDAKLGLAQIAVNYFQFHQAEKLVDEVLSGYIPPIKAWNLKASIQQSLGNNELALNAINQALLIDKNNIQSLIFASTINIELQQFELAEKYADTVLEQVPNEPKAEFIKAMVQVRKNENAGFESAIETVAQVLDHLSEDVLRSNPSYYYLASIILFHQQKHEAARQYIDDYLLIDENNINALTLAATIELVEKKPMQAKTLLSRANFLDPDNPKILSMLGMTYLELRQYEKAHFYLAKVKELKPNLGIADTQLAQSYLATGKPEKAIKHLLTASAAEYDPTVVGLLLVESYIKSGKMNKGISVAKNLAENMPDNANIQHHLGYIYQISGEIEKAKHQFEQALIIEPNHAKSIISLANLDYQKGNADIAIDRLKAALIISANDIDLITALAKFYNRTNNSAASVILLEEPFKLDNQNEELLKNLIVSYVGDKQLMLAIETLNTYLLNQRKTVELYLMLASLQIMNSDVNSAVSAYKSAIKQDGDKGTIYLLIAHAYQRFSKVPEAITAYKKSMAWDGDNDKAIIGLAQLYNAENDTDSAIKLIKSFEVNHQLSAQLVEVLANSYLRINQYKLAEMYYKKRIKLASNDSSVVGLNLIYRATKRTSKAVDLLTTSLNDRPNSLFLNTALAELYIDQSQWLNADKIYQTLVQLYPKQPAILNNASYVALNLSDYPRAEALVKRSLALVDNQPDSLDTLGWVYYHTKEFNKALPLFRKALAINNSNPAVKYHLALTLKALNRDKEAIKLMVDVVNSDYSQKADADVLLKQWLK | failed |
| MTGVLTADRPPKPAAPRRYTVALARDEDDVRAAQRLRHDVFAGEMGALLASPQPGHDVDAFDAYCDHLLVREETTGQVVGTYRLLPPERAAVAGRLYAESEFDLAALDPIRSSLVEVGRSCVHPDHRDGAVIGLVWAGIARYMTDRGHAWLAGCCSLPLADGGALAAGAWDRVRTKHLAPEEYRVRPLLPWVPRPAAPAARTELPALLRGYLRLGAWVCGEPAHDVDFGVADLYVLLPMNRVDPRYLRHFLSLAPA | failed |
| MKQLFQKLYDHIEITLLVLLSVSFVTGMYMMMNRPIGPTMMDYVPQVIIGTIIIVDIVFLISGRKKENSK | failed |
| MKANFGYITPVPLNMELIDISLSKTQKRTPTVIHPQYNIVKIRMFYMRKVKHAGNEFASRLGTILTDFPRIEDIHPFYGDLINVLYDRDHYKLALGHVNAAKNGIEKVSKEFVKLLKFADSLYRCKQLKRAALGRMASAAKKLGKTLEYLEEVRMHMSRLPSIDLSGRTLLVCGFPNVGKSSFVRKISRADVEVQPYPFTTKSLYVGHFDYKYLQWQVIDTPGILDQPLENRNTIEMLSITALAHIKAVVLYFIDLSETCGYSVEEQMDLFNTLNPLLSSNMVIVLSKSDVLGLSGMEDKKAIMSFLEGKKYMEMSCEKEENIDAVKAMACDLLLDERFERKINSERLSEYINRITIVRPKELREKAESFICSREVTEIENEQERYLIPEEYRYDIVPEIVDGKNVADFFDPDIEKKLKEVEEEEEGLLPMYCKTYDVLSPEERALKEEVVAGIERRRIINRLREKKRLPDSWKHRSRNSGGDIAVHVRRDSKTQVAQPPRLPSKKKARFDDKHYYDRKPKHLYRGRK | failed |
| RPQGLHLELETRLQKMYGIRQVIVVEATEPDDEESIKQAIGSAAAHYLETSLSAQDHIGISSWSSTIRAMVSHMHPQPGKQSAQEVVQLLGGVGNKGAFEATLLTQRLATLLNCPAFLLPSQSIEQSVESKQRIVEMEEVKEVLHRFDSITLAIVGIGELEPSQLLRNSGNYYTEDMLRVLAERGAVGDICLRYFDAQGKPVLEEDEEFVVSMGLGKLRSINRVLGLAGGVRKVQAIKGALLGGYLDVLITDVGTARGLGG | not failed |
